# Values quoted from earlier work, collected in publication PMC4854875.
# Biological target: UBE2T (Homo sapiens) (UniProt Q9NPD8)
# Sequence of UniProt Q9NPD8 (Q9NPD8 whole entry): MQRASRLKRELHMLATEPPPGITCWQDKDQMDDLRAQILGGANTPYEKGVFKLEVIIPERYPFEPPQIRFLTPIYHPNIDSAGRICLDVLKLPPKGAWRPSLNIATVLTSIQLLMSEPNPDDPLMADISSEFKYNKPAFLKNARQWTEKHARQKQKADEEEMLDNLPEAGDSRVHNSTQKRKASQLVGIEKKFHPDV
substance,measurement,value
FANCL (from UniProt Q9NW38),Kd,454 nM
